Source: IntAct's records for PubMed 27009418

B1: Calsenilin (Mus musculus), Q9QXT8 (parent)
chain: MQRTKEAVKASDGNLLGDPGRIPLSKRESIKWQRPRFTRQALMRCCLIKWILSSAAPQGSDSSDSELELSTVRHQPEGLDQLQAQTKFTKKELQSLYRGFKNECPTGLVDEDTFKLIYSQFFPQGDATTYAHFLFNAFDADGNGAIHFEDFVVGLSILLRGTVHEKLKWAFNLYDINKDGCITKEEMLAIMKSIYDMMGRHTYPILREDAPLEHVERFFQKMDRNQDGVVTIDEFLETCQKDENIMNSMQLFENVI

Variants of: B1
Settings: with psn1_human PSEN1, P49768

| Variant | effect of a mutation on the interaction |
| --- | --- |
| MQRTKEAVKASDGNLLGDPGRIPLSKRESIKWQRPRFTRQALMRCCLIKWILSSAAPQGSDSSDSELELSTVRHQPEGLDQLQAQTKFTKKELQSLYRGFKNECPTGLVDEDTFKLIYSQFFPQGDATTYAHFLFNAFDADGNGAIHFEDFVVGLSILLRGTVHEKLKWAFNLYDINKDGCITKEEMLAIMKSIYDMMGRHTYPILREDAPLEHVERFFQKMDRNQDGVVTIDQFLETCQKDENIMNSMQLFENVI [E234Q] | decreasing interaction |
| MQRTKEAVKASDGNLLGDPGRIPLSKRESIKWQRPRFTRQALMRCCLIKWILSSAAPQGSDSSDSELELSTVRHQPEGLDQLQAQTKFTKKELQSLYRGFKNECPTGLVDEDTFKLIYSQFFPQGDATTYAHFLFNAFDADGNGAIHFEDFVVGLSILLRGTVHEKLKWAFNLYDINKDGCITKEQMLAIMKSIYDMMGRHTYPILREDAPLEHVERFFQKMDRNQDGVVTIDEFLETCQKDENIMNSMQLFENVI [E186Q] | decreasing interaction |
